In patent US20250215095:

What was measured:
[1] = test system: internally quenched peptide probe with CM PWGLAGRS (SEQ ID NO: 690)
[2] = test system: internally quenched peptide probe with CM AWGLSGRS (SEQ ID NO: 686)
[3] = test system: internally quenched peptide probe with CM PAGLSGRS (SEQ ID NO: 687)
[4] = test system: internally quenched peptide probe with CM WGLSGRS (SEQ ID NO: 685)
[5] = test system: internally quenched peptide probe with CM PWGLSG (SEQ ID NO: 684)
[6] = test system: internally quenched peptide probe with CM LSGRSPAGL (SEQ ID NO: 694)
[7] = test system: internally quenched peptide probe with CM PWGASGRS (SEQ ID NO: 689)
[8] = test system: internally quenched peptide probe with CM PWGLSGRA (SEQ ID NO: 693)
[9] = test system: internally quenched peptide probe with CM PWGLSGRS (SEQ ID NO: 12)
[10] = test system: internally quenched peptide probe with CM LSGRSPWGL (SEQ ID NO: 177)
[11] = test system: internally quenched peptide probe with CM PWALSGRS (SEQ ID NO: 688)
[12] = test system: internally quenched peptide probe with CM PWGLSGR (SEQ ID NO: 163)
[13] = test system: internally quenched peptide probe with CM PWGLSGAS (SEQ ID NO: 692)
[14] = test system: internally quenched peptide probe with CM RSPWGL (SEQ ID NO: 90)
[15] = test system: internally quenched peptide probe with CM PWGLRS (SEQ ID NO: 48)
[16] = test system: internally quenched peptide probe with CM PWGLSARS (SEQ ID NO: 691)
[17] = test system: internally quenched peptide probe with CM PWGLSGKS (SEQ ID NO: 150)
[18] = test system: internally quenched peptide probe with CM LSGKSPWGL (SEQ ID NO: 178)

Chain of matrix metalloprotease 9 (MMP9) (chain, as listed by the source): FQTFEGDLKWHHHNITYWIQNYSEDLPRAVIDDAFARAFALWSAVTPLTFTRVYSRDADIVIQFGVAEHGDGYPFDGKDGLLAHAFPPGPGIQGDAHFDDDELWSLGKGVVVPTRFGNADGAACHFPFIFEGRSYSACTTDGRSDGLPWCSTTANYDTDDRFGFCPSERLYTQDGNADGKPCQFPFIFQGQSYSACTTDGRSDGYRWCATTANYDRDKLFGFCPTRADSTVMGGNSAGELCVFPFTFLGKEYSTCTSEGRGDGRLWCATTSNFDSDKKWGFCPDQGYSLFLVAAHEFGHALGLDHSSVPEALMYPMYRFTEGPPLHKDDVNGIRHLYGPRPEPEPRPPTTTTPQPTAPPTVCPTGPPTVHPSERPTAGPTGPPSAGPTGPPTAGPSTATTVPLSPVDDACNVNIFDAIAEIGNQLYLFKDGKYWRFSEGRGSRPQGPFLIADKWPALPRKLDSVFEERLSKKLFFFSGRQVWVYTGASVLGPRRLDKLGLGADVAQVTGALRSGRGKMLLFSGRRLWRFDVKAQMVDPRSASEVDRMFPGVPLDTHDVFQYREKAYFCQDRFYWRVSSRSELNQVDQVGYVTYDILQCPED

Substance: matrix metalloprotease 9 (MMP9)
- Probe Cleavage (pM/s) [1]: 13700 pM/s
- Probe Cleavage (pM/s) [2]: 2070 pM/s
- Probe Cleavage (pM/s) [3]: 16200 pM/s
- Probe Cleavage (pM/s) [4]: 581 pM/s
- Probe Cleavage (pM/s) [5]: 13000 pM/s
- Probe Cleavage (pM/s) [6]: 1630 pM/s
- Probe Cleavage (pM/s) [7]: 456 pM/s
- Probe Cleavage (pM/s) [8]: 17500 pM/s
- Probe Cleavage (kcat/KM (M^-1 s^-1)) [9]: 150000 M⁻¹ s⁻¹
- Probe Cleavage (pM/s) [9]: 7620 pM/s
- Probe Cleavage (pM/s) [10]: 1070 pM/s
- Probe Cleavage (pM/s) [11]: 12800 pM/s
- Probe Cleavage (pM/s) [12]: 17200 pM/s
- Probe Cleavage (pM/s) [13]: 16400 pM/s
- Probe Cleavage (kcat/KM (M^-1 s^-1)) [14]: 870000 M⁻¹ s⁻¹
- Probe Cleavage (pM/s) [14]: 25500 pM/s
- Probe Cleavage (kcat/KM (M^-1 s^-1)) [15]: 150000 M⁻¹ s⁻¹
- Probe Cleavage (pM/s) [15]: 3830 pM/s
- Probe Cleavage (pM/s) [16]: 17500 pM/s
- Probe Cleavage (kcat/KM (M^-1 s^-1)) [17]: 130000 M⁻¹ s⁻¹
- Probe Cleavage (pM/s) [17]: 5360 pM/s
- Probe Cleavage (pM/s) [18]: 630 pM/s
